Measured values reported in publication PMC6448830.

Target: HA-2B4 (A. trivirgatus 2B4 ectodomain fused to human 2B4 from residue 219 to the stop codon), on COS-7 cells (Aotus trivirgatus | human) (UniProt Q9BZW8)
Assay: flow cytometry on cells; cells incubated with the Fc fusion protein (8 μg/mL or a range of concentrations), then anti-human IgG (Fc specific) mAb and anti-mouse IgG-PE; 20% rabbit serum and 1% fetal bovine serum in PBS

A43-Fc fusion protein
percent of 2B4-transfected COS-7 cells binding A43-Fc (highest dose): 80.9%
